Results reported in PMC4646227, “Plasticity in PYD assembly revealed by cryo-EM structure of the PYD filament of AIM2” (Cell Discovery, 2015).

Key:
[1] = biological target: ASC PYD (M1-Q105, S106C), fluorophore-labelled, MBP removed by TEV (UniProt Q9ULZ3); test: fluorescence polarisation; apparent; Alexa Fluor 488-labelled MBP-ASC PYD, same procedure, mCherry-NLRP6 PYD added as nucleator
[2] = biological target: the molecule itself; test: cryo-EM structure; helical reconstruction of His-GFP-AIM2 PYD filaments; sample in 20 mM HEPES pH 8.0, 150 mM NaCl, 2 mM dithiothreitol
[3] = biological target: T1, ASC PYD (M1-Q105, S106C), fluorophore-labelled, MBP removed by TEV (UniProt Q9ULZ3 1-106, S106C, Alexa Fluor 568 on the engineered C-terminal Cys (maleimide); Alexa Fluor 488 instead in the experiment with mCherry-NLRP6^PYD); test: fluorescence polarisation; apparent; Alexa568-labelled MBP-ASC PYD, polymerisation started by TEV removal of MBP; initial rates of ASC PYD filament formation plotted against concentrations of added GFP-AIM2 PYD seeds; conditions: both partners purified
T1 construct: Apoptosis-associated speck-like protein containing a CARD (ASC), Pyrin domain, M1-Q105 followed by an engineered Cys (S106C); also called labeled MBP-ASC^PYD (before cleavage); source: E. coli BL21(DE3), purified (Ni-NTA, SEC) as monomeric MBP fusion, labelled, MBP removed by TEV in the assay
T1 sequence (Q9ULZ3 1-106 S106C): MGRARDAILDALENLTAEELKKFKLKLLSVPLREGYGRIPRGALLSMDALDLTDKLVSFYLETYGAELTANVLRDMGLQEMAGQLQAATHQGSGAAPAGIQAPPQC

Sequence of ASC PYD (M1-Q105, S106C), fluorophore-labelled, MBP removed by TEV (UniProt Q9ULZ3) (Q9ULZ3 1-106 S106C): as above

mCherry-tagged NLRP6 PYD (domain or fragment)
Kd [1]: 90 nM

B1: His-GFP-tagged AIM2 PYD (M1-P100) (domain or fragment, human, UniProt O14862 1-100, looked up)
chain: MESKYKEILLLTGLDNITDEELDRFKFFLSDEFNIATGKLHTANRIQVATLMIQNAGAVSAVMKTIRIFQKLNYMLLAKRLQEEKEKVDKQYKSVTKPKP
notes: Absent in melanoma 2 (AIM2), human, Pyrin domain, residues M1-P100; Non-cleavable His-GFP tag from a pET28a backbone; A two-residue linker from the BamHI site joins GFP and AIM2 PYD; The protein forms filaments; also called GFP-AIM2^PYD; His-GFP-AIM2^PYD; source: E. coli BL21(DE3), purified (Ni-NTA, SEC; void fractions); not shown: His, N-terminal, kept; GFP (monomeric, M1-T230, A206K), …
binding result [2]: binds | Kd [3]: ~210 nM
